Assay results: article PMC6555819, “Comprehensive study of nuclear receptor DNA binding provides a revised framework for understanding receptor specificity”
Changes are numbered by the printed parent chain.

B1: NRC3_wobSeed93_DR3_A23T_o1 (dsDNA)
DNA 1: GCAGTCAAAGTTCATCTAGGTATCGTAAGATATGCTGCGATTGACAGCGTAGAATGAAGG
DNA 2: CCTTCATTCTACGCTGTCAATCGCAGCATATCTTACGATACCTAGATGAACTTTGACTGC
B2: NRC3_wobSeed74_DR3_A14G_o1 (dsDNA)
DNA 1: GCTCTAGTTGGTCGCGGAGGTCACACACGACGGGTAGCGATTGACAGCGTAGAATGAAGG
DNA 2: CCTTCATTCTACGCTGTCAATCGCTACCCGTCGTGTGTGACCTCCGCGACCAACTAGAGC
B3: NRC3_wobSeed99_DR4_G10T_o1 (dsDNA)
DNA 1: GCTCTCGGATGACACGAAAGGTCAGAGCTCGACATCGCGATTGACAGCGTAGAATGAAGG
DNA 2: CCTTCATTCTACGCTGTCAATCGCGATGTCGAGCTCTGACCTTTCGTGTCATCCGAGAGC
B4: NRC3_wobSeed6_DR0_A6G_o1 (dsDNA)
DNA 1: GCCCTGGCAGGCCAGGGTCACTCAAGCATTTCGCTTGCGATTGACAGCGTAGAATGAAGG
DNA 2: CCTTCATTCTACGCTGTCAATCGCAAGCGAAATGCTTGAGTGACCCTGGCCTGCCAGGGC
B5: NRC3_wobSeed6_DR0_C13G_o1 (dsDNA)
DNA 1: B4 DNA 1 with G6A, C13G
DNA 2: B4 DNA 2 with G48C, C55T
B6: NRC3_wobSeed136_DR5_G21C_o1 (dsDNA)
DNA 1: GCTAGCCTAGGTCATTCAGGCGCCAGTATAGAAAGCGCGATTGACAGCGTAGAATGAAGG
DNA 2: CCTTCATTCTACGCTGTCAATCGCGCTTTCTATACTGGCGCCTGAATGACCTAGGCTAGC
B7: NRC3_wobSeed63_DR2_G19A_o1 (dsDNA)
DNA 1: GCCGAACTAGGTCACCAGAACAGTGAAGAGGTTGGAGCGATTGACAGCGTAGAATGAAGG
DNA 2: CCTTCATTCTACGCTGTCAATCGCTCCAACCTCTTCACTGTTCTGGTGACCTAGTTCGGC
B8: NRC3_wobSeed50_DR2_T12G_o1 (dsDNA)
DNA 1: GCCCTAGTTGGGCAGGAGGTCACACACCGGATATGAGCGATTGACAGCGTAGAATGAAGG
DNA 2: CCTTCATTCTACGCTGTCAATCGCTCATATCCGGTGTGTGACCTCCTGCCCAACTAGGGC
B9: NRC3_wobSeed88_DR3_T15A_o1 (dsDNA)
DNA 1: GCTAGCCTAGGTCAAGCGGGCCAGTATAGTGTCGGCGCGATTGACAGCGTAGAATGAAGG
DNA 2: CCTTCATTCTACGCTGTCAATCGCGCCGACACTATACTGGCCCGCTTGACCTAGGCTAGC
B10: NRC3_wobSeed98_DR4_o1 (dsDNA)
DNA 1: GCACTAGTTGGTCAGCTGAGGTCACACACAATTCGGGCGATTGACAGCGTAGAATGAAGG
DNA 2: CCTTCATTCTACGCTGTCAATCGCCCGAATTGTGTGTGACCTCAGCTGACCAACTAGTGC
B11: NRC3_wobSeed98_DR4_G15C_o1 (dsDNA)
DNA 1: B10 DNA 1 with G15C
DNA 2: B10 DNA 2 with C46G
B12: NRC3_wobSeed32_DR1_C4A_o1 (dsDNA)
DNA 1: GCTATTGTAGATCAAAGGTTAAGAAAGCCGAAGCCTGCGATTGACAGCGTAGAATGAAGG
DNA 2: CCTTCATTCTACGCTGTCAATCGCAGGCTTCGGCTTTCTTAACCTTTGATCTACAATAGC
B13: NRC3_wobSeed21_DR0_G17C_o1 (dsDNA)
DNA 1: GCCGTCAAAGTTCAAGCTAACGTAACAGAAAGCAGCGCGATTGACAGCGTAGAATGAAGG
DNA 2: CCTTCATTCTACGCTGTCAATCGCGCTGCTTTCTGTTACGTTAGCTTGAACTTTGACGGC
B14: NRC3_wobSeed21_DR0_T18C_o1 (dsDNA)
DNA 1: B13 DNA 1 with C17G, T18C
DNA 2: B13 DNA 2 with A43G, G44C
B15: NRC3_wobSeed124_DR5_T16A_o1 (dsDNA)
DNA 1: GCCCTACTGGGCCATACAGAGGTCATTGATCATATGGCGATTGACAGCGTAGAATGAAGG
DNA 2: CCTTCATTCTACGCTGTCAATCGCCATATGATCAATGACCTCTGTATGGCCCAGTAGGGC
B16: NRC3_wobSeed124_DR5_G10T_o1 (dsDNA)
DNA 1: B15 DNA 1 with G10T, A16T
DNA 2: B15 DNA 2 with T45A, C51A
B17: NRC3_wobSeed124_DR5_T5C_o1 (dsDNA)
DNA 1: B15 DNA 1 with T5C, A16T
DNA 2: B15 DNA 2 with T45A, A56G
B18: NRC3_wobSeed124_DR5_A6T_o1 (dsDNA)
DNA 1: B15 DNA 1 with A6T, A16T
DNA 2: B15 DNA 2 with T45A, T55A
B19: NRC3_wobSeed36_DR1_A26G_o1 (dsDNA)
DNA 1: GCCCGACTGGGGCAAAGGTTACCATGCTCAGTACGAGCGATTGACAGCGTAGAATGAAGG
DNA 2: CCTTCATTCTACGCTGTCAATCGCTCGTACTGAGCATGGTAACCTTTGCCCCAGTCGGGC
B20: NRC3_wobSeed30_DR1_C4G_o1 (dsDNA)
DNA 1: GCAGTAGCAGGCCAAGGGTCACTCAAGATTAGTCCGGCGATTGACAGCGTAGAATGAAGG
DNA 2: CCTTCATTCTACGCTGTCAATCGCCGGACTAATCTTGAGTGACCCTTGGCCTGCTACTGC
B21: NRC3_wobSeed82_DR3_A28G_o1 (dsDNA)
DNA 1: GCATCGAAAGGTCGACGAGGTGAGTATGCACCGTTTGCGATTGACAGCGTAGAATGAAGG
DNA 2: CCTTCATTCTACGCTGTCAATCGCAAACGGTGCATACTCACCTCGTCGACCTTTCGATGC
B22: NRC3_wobSeed100_DR4_C13G_o1 (dsDNA)
DNA 1: GCCCTACTGGGCGACGAAAGGTCATTGATTCAGTGAGCGATTGACAGCGTAGAATGAAGG
DNA 2: CCTTCATTCTACGCTGTCAATCGCTCACTGAATCAATGACCTTTCGTCGCCCAGTAGGGC
B23: NRC3_wobSeed100_DR4_C15T_o1 (dsDNA)
DNA 1: B22 DNA 1 with G13C, C15T
DNA 2: B22 DNA 2 with G46A, C48G
B24: NRC3_wobSeed64_DR2_T16A_o1 (dsDNA)
DNA 1: GCTAGCCTAGGTCATAGGGCCAGTATAGTACGCATCGCGATTGACAGCGTAGAATGAAGG
DNA 2: CCTTCATTCTACGCTGTCAATCGCGATGCGTACTATACTGGCCCTATGACCTAGGCTAGC
B25: NRC3_wobSeed101_DR4_G20T_o1 (dsDNA)
DNA 1: GCCCTTACGGGTCACTCCATGTTATAGCATCGGAGTGCGATTGACAGCGTAGAATGAAGG
DNA 2: CCTTCATTCTACGCTGTCAATCGCACTCCGATGCTATAACATGGAGTGACCCGTAAGGGC
B26: NRC3_wobSeed65_DR2_T8C_o1 (dsDNA)
DNA 1: GCATATGCAGGTTATCGGGTCATTCAGTTTGCGCATGCGATTGACAGCGTAGAATGAAGG
DNA 2: CCTTCATTCTACGCTGTCAATCGCATGCGCAAACTGAATGACCCGATAACCTGCATATGC
B27: NRC3_wobSeed65_DR2_A9G_o1 (dsDNA)
DNA 1: B26 DNA 1 with C8T, A9G
DNA 2: B26 DNA 2 with T52C, G53A
B28: NRC3_wobSeed46_DR1_T22G_o1 (dsDNA)
DNA 1: GCTTACCAAGGTGAAAGGTCGGTGATGCACGCCTTGGCGATTGACAGCGTAGAATGAAGG
DNA 2: CCTTCATTCTACGCTGTCAATCGCCAAGGCGTGCATCACCGACCTTTCACCTTGGTAAGC
B29: NRC3_wobSeed73_DR3_T21G_o1 (dsDNA)
DNA 1: GCCAAACTAGGTCACAGAGGGCAAAGTCCGTGCGTAGCGATTGACAGCGTAGAATGAAGG
DNA 2: CCTTCATTCTACGCTGTCAATCGCTACGCACGGACTTTGCCCTCTGTGACCTAGTTTGGC
B30: NRC3_wobSeed73_DR3_T21A_o1 (dsDNA)
DNA 1: B29 DNA 1 with G21A
DNA 2: B29 DNA 2 with C40T
B31: NRC3_wobSeed137_DR5_A16G_o1 (dsDNA)
DNA 1: GCATATGTAGGTTACGTCCGGGTCATTCAGGCTATGGCGATTGACAGCGTAGAATGAAGG
DNA 2: CCTTCATTCTACGCTGTCAATCGCCATAGCCTGAATGACCCGGACGTAACCTACATATGC
B32: NRC3_wobSeed134_DR5_o1 (dsDNA)
DNA 1: GCGCTGCTAGGTCAACTGATGGTCAGCTAAAGCTCGGCGATTGACAGCGTAGAATGAAGG
DNA 2: CCTTCATTCTACGCTGTCAATCGCCGAGCTTTAGCTGACCATCAGTTGACCTAGCAGCGC
B33: NRC3_wobSeed134_DR5_C13T_o1 (dsDNA)
DNA 1: B32 DNA 1 with C13T
DNA 2: B32 DNA 2 with G48A
B34: NRC3_wobSeed4_DR0_T8G_o1 (dsDNA)
DNA 1: GCCCTACGGGGCCAAGGTCATTGATCAGTCAAAGCAGCGATTGACAGCGTAGAATGAAGG
DNA 2: CCTTCATTCTACGCTGTCAATCGCTGCTTTGACTGATCAATGACCTTGGCCCCGTAGGGC

What follows are binders tested against RXRa (Homo sapiens, UniProt P19793) (assay: no ligand; PBM; 180 nM; PBS pH 7.4, 2% milk, 0.02% Triton X-100, 1 mM DTT, BSA, 0.4 mg/ml salmon testes DNA). Settings: tags: His cleaved; chain copies: 2; label: surface-attached array probe.
Chain of RXRa (P19793 whole entry): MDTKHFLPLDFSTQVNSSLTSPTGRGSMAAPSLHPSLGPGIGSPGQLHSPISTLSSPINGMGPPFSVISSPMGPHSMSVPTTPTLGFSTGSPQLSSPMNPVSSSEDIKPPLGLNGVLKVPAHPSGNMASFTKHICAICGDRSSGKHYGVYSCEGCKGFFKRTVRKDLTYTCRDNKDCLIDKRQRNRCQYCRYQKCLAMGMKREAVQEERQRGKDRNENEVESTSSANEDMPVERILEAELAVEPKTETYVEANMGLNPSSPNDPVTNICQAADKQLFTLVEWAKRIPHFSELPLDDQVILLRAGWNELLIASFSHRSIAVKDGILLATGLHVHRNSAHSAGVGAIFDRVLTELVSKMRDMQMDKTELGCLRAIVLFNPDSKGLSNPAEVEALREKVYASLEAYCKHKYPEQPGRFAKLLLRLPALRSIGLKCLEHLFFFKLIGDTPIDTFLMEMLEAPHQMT

Binder | binding signal
B1 | 4.47 PBM z-score against 500 random probes
B2 | 4.16 PBM z-score against 500 random probes
B3 | 4.05 PBM z-score against 500 random probes
B4 | 3.39 PBM z-score against 500 random probes
B5 | 3.19 PBM z-score against 500 random probes
B6 | 3 PBM z-score against 500 random probes
B7 | 3.24 PBM z-score against 500 random probes
B8 | 3.92 PBM z-score against 500 random probes
B9 | 3.14 PBM z-score against 500 random probes
B10 | 4.42 PBM z-score against 500 random probes
B11 | 4.28 PBM z-score against 500 random probes
B12 | 3.28 PBM z-score against 500 random probes
B13 | 4.62 PBM z-score against 500 random probes
B14 | 3.96 PBM z-score against 500 random probes
B15 | 4.2 PBM z-score against 500 random probes
B16 | 3.59 PBM z-score against 500 random probes
B17 | 3.75 PBM z-score against 500 random probes

Binder | binding signal
B18 | 3.71 PBM z-score against 500 random probes
B19 | 3.81 PBM z-score against 500 random probes
B20 | 4.38 PBM z-score against 500 random probes
B21 | 4.34 PBM z-score against 500 random probes
B22 | 4.57 PBM z-score against 500 random probes
B23 | 4.52 PBM z-score against 500 random probes
B24 | 3.11 PBM z-score against 500 random probes
B25 | 4.24 PBM z-score against 500 random probes
B26 | 3.65 PBM z-score against 500 random probes
B27 | 3.44 PBM z-score against 500 random probes
B28 | 3.86 PBM z-score against 500 random probes
B29 | 4.01 PBM z-score against 500 random probes
B30 | 3.55 PBM z-score against 500 random probes
B31 | 3.33 PBM z-score against 500 random probes
B32 | 3.07 PBM z-score against 500 random probes
B33 | 0.49 PBM z-score against 500 random probes
B34 | 3.5 PBM z-score against 500 random probes
